Assay results published in US20230137562A1, “TAU AGGREGATION INHIBITORS” (priority 2017, published 2023).
Several values for one entry are separate records, joined by “and”; a condition that tells them apart may be missing. Equal entries are not always repeated. Square brackets hold non-standard residues; d marks the D form. Ends that are not written are not given here. hArg = N=C(N)NCCCC[C@H](N)C(=O)O

T1: Ac-VQIINK-NH2
T1 peptide: Ac-VQIINK-NH2


Target: His-Tau40P301L Tau (UniProt P10636-8 1-441)
Sequence (P10636 other isoform, or with tags, fused parts or gaps limits assumed): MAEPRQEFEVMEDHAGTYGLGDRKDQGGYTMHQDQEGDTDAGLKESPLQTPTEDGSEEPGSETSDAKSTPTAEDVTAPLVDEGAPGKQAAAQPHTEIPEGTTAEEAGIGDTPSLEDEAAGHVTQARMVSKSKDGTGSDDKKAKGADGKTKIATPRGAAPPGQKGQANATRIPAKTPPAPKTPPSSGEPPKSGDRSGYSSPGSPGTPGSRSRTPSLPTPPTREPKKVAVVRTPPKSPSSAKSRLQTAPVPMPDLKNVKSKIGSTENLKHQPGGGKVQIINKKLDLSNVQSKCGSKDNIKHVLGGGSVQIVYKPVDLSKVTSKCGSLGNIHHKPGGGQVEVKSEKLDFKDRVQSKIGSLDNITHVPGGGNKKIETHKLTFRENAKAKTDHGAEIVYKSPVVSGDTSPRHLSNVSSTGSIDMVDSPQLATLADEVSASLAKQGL
Experiment: cell-based or functional assay

Binder	IC50 (µM), Tau40 assay (ThT)
RIRLWIW	7.07 µM
KWWIRIRYW	4.62 µM and 7.02 µM
KIRLYWW	5.73 µM
RIRIFIW	3.94 µM
WRIRIAW	4.72 µM
WRIWIRW	2.98 µM and 2.1 µM and 2.11 µM
RRIRIRW	2.88 µM
WRIHIRW	3.09 µM
ARIWIRYW	4.08 µM
HRIRIRW	3.28 µM
RIRVWIF	6.53 µM and 6.89 µM
FRIRIHHW	3.2 µM
RIALYWW	3.54 µM
ARIRIRW	4.19 µM
WIRYWWRI	3.69 µM
WRIRIRR	3.15 µM
WRIRIRW	0.9 µM and 0.84 µM
IRIWIW	6.77 µM
LKIHIRHW	3.79 µM
WRIWIR	7.22 µM
WRARIRW	3.7 µM

Binder	IC50 (µM), Tau40 assay (ThT)
W[hArg]I[hArg]L[hArg]W [W(hR)I(hR)L(hR)W]	3.39 µM
WRIHIRYW	3.76 µM
WRIRLRW	0.9 µM and 0.97 µM
WRIRLYWR	3.1 µM
RIWIRIW	6.47 µM
WKIHIWWR	5.75 µM
WYRLRIRW	0.86 µM and 0.97 µM
WRIWIRLW	7.32 µM
IWIRYW	4.05 µM
ERIWIRYW	5.33 µM
WYRIWIRW	0.96 µM and 1 µM and 1.73 µM
RIHIFFW	4.4 µM
RIRIAIW	4.14 µM
RIWIRVW	6.36 µM
RIRIRWW	4.57 µM
FRIWIRYF	4 µM
WRIRARW	8.01 µM
RIRIWVW	7.07 µM
WRIRIRA	8.31 µM
IRLWVW	8.77 µM
WRIRIRH	4.44 µM

Target: T1, Ac-VQIINK-NH2
Experiment: cell-based or functional assay

Binder	IC50 (µM), VQIINK Inhibition (ThT)
RIRLWIW	4.63 µM
KWWIRIRYW	1.8 µM
KIRLYWW	2.86 µM
RIRIFIW	1.57 µM
WRIRIAW	6 µM
WRIWIRW	2.73 µM
RRIRIRW	4.29 µM
WRIHIRW	1.47 µM
ARIWIRYW	3.14 µM
HRIRIRW	9.07 µM
RIRVWIF	2.8 µM
FRIRIHHW	1.08 µM
RIALYWW	2.39 µM
ARIRIRW	2.72 µM
WIRYWWRI	2.8 µM
WRIRIRR	34.1 µM
WRIRIRW	2.96 µM
IRIWIW	2.94 µM
LKIHIRHW	3.05 µM
WRIWIR	11.8 µM
WRARIRW	5.77 µM

Binder	IC50 (µM), VQIINK Inhibition (ThT)
W[hArg]I[hArg]L[hArg]W [W(hR)I(hR)L(hR)W]	2.52 µM
WRIHIRYW	3.17 µM
WRIRLRW	4.04 µM
WRIRLYWR	2.12 µM
RIWIRIW	3.17 µM
WKIHIWWR	2.01 µM
WYRLRIRW	2.36 µM
WRIWIRLW	3.97 µM
IWIRYW	5.43 µM
ERIWIRYW	6.19 µM
WYRIWIRW	2.02 µM and 3.69 µM
RIHIFFW	1.95 µM
RIRIAIW	1.8 µM
RIWIRVW	2.14 µM
RIRIRWW	10.2 µM
FRIWIRYF	4.64 µM
WRIRARW	4.07 µM
RIRIWVW	2.3 µM
WRIRIRA	8.28 µM
IRLWVW	1.63 µM
WRIRIRH	11.6 µM
